Data: the DeepSol protein solubility set

Test: soluble on expression in E. coli; label from the status in PepcDB or PDB records

Row | Sequence | soluble on expression in E. coli
1 | MKNIIPQALLTMPILSTGLQAQEKQPTPNLVFIMADQYRGDAIGCIGKEPVKTPHLDKLASEGINFTNAISSYPVSSPARGMLMTGMYPIGSKVTGNCNSETAPYGVELSQNARCWSDVLKDQGYNMGYIGKWHLDAPYKPYVDTYNNRGKVAWNEWCPPERRHGFDHWIAYGTYDYHLKPMYWNTTAPRDSFYYVNQWGPEYEASKAIEYINGQKDQKQPFALVVSMNPPHTGYELVPDRYKEIYKDLDVEALCKGRPDIPAKGTEMGDYFRNNIRNYYACITGVDENVGRIIEALKQNNLFDNTIVVFTSDHGICMGAHENAGKDIFYEESMRIPMILSWPDQIKPRKSDPLMIAFADLYPTLLSMMGFSKEIPETVQTFDLSNEVLTGKNKKDLVQPYYFVKFDNHATGYRGLRTDRYTYAVHATDGKIDNVILFDRTNDPHEMNNIASQQLKLTHTFNRQLKTWLEKTNDPFAQYIKLKLEHHHHHH | soluble
2 | MTFRNCVAVDLGASSGRVMLARYERECRSLTLREIHRFNNGLHSQNGYVTWDVDSLESAIRLGLNKVCEEGIRIDSIGIDTWGVDFVLLDQQGQRVGLPVAYRDSRTNGLMPQAQQQLGKRDIYQRSGIQFLPFNTLYQLRALTEQQPELIPHIAHALLMPDYFSYRLTGKMNWEYTNATTTQLVNINSDDWDESLLAWSGANKAWFGRPTHPGNVIGHWICPQGNEIPVVAVASHDTASAVIASPLNGSRAAYLSSGTWSLMGFESQTPFTNDTALAANITNEGGAEGRYRVLKNIMGLWLLQRVLQERQINDLPALIAATQALPACRFIINPNDDRFINPDEMCSEIQAACRETAQPIPGSDAELARCIFDSLALLYADVLHELAQLRGEDFSQLHIVGGGCQNTLLNQLCADACGIRVIAGPVEASTLGNIGIELMTLDELNNVDDFRQVVSTTANLTTFTPNPDSEIAHYVAQIHSTRQTKELCA | not soluble
3 | MNSGYSANIFPSSSSPTLYQSHQLPNPSATMYQATPRDMGKPPVRGKTSPYGFFVKMCYEEHKKKYPNENVQVTEISKKCSEKWKTMVDDEKRRFYELAQKDAERYQAEVSVAAYGGEDAMRKRKRAKKDPHAPKRALSAFFFYSQDKRPEIQAGHPDWKVGQVAQELGKMWKLVPQETKDMYEQKAQADKDRYADEMRNYKAEMQKMSGMDHYDDDNIHHVVHVEDINSQNIS | not soluble
4 | MTNLFVRSGISFVDRSEVLTYIGNEMLAKGVVHDTWPQALIAREAEFPTGIMLEQHAIAIPHCEAIHAKSSAIYLLRPTNKVHFQQADDDNDVAVSLVIALIVENPQQQLKLLRCLFGKLQQPDIVETLITLPETQLKEYFTKYVLDSDE | not soluble
5 | MGHHHHHHSHMSNTDASGEKRVTGTSERREQIIQRLRQQGSVQVNDLSALYGVSTVTIRNDLAFLEKQGIAVRAYGGALICDSTTPSVEPSVEDKSALNTAMKRSVAKAAVELIQPGHRVILDSGTTTFEIARLMRKYTDVIAMTNGMNVANALLEAEGVELLMTGGHLRRQSQSFYGDQAEQSLQNYHFDMLFLGVDAIDLERGVSTHNEDEARLSRRMCEVAERIIVVTDSSKFNRSSLHKIIDTQRIDMIIVDEGIPADSLEGLRKAGVEVILVGDHASSL | soluble
6 | MNMNKTYIPKLDDLLGGGVKEGASIMFSASPGVDYEAFGYQMLNGRLDEGTRGFIFTNVEEPESIIYEFRSYGWDIESHIENGNLFFVDGSSPFLGMPSDQRYTVNDYSEIKDVVLNAINDIPGGVGIINNLSVIIDYLGNGDTLEIVEAWNRRASELDVNLVYLFTEWDYEPELIDKLRESMDCVVNLRTIEERVIIGQGFMVANSAWSEPPSTMVLFFVVQPGGVKVYVPKILVTGPYNSGKSSFVRAIATKSVSVDRKALSAFPTTIAMDIGHLEYKGFMADIFGTPGQERFDMILDVLSREAVGAFILLDSTAPETFARAKEMIRKTRAEAIPKVVVANKQDLPGALSPEEIREMMKLGADVPIVPASVTEGWGVRDALDTLLGLLYGGLEHHHHHH | not soluble
7 | MGSDKIHHHHHHMFKPWVGDDWGHQDNALQGIRLLVMGESHYCDPAKPELVGRCEPDVTSYVVRRYAIEESHRFFTGITQVISGKPKWQMSRDDVAAIWHSIAFYNYVPLYVGTQSRIRPGDKFALGRVPFEILLEQLRPRAILVCGYELWWWVLKGMPCGFNGDPASVPFQKIGPAIAARMKHPSSAYSSVRWRPTLLELLSRARALQQE | not soluble
8 | KKSSMRKELETIQLLWHQQKGQYQLSKETIELINHKCHDLKHQVQAIRAVKDEKERETYLEKIEKSVQIYSAIVRTGNEILDTILTEKSLICENSGIHINCVADGSLLAFMNPVDLYTLFGNALDNAIEAVRKLESKEKRVIDIMLYERQSFLMLQIVNPMCGEVKFEDGLPLTTKAKNGYHGYGMKSMLHTIQKYEGHLTTEVKNGCFYFNVMLPLERDSNKK | not soluble
9 | MSLNLETPSQENLNFMLTEITTKLKMVNVGVFENLELDSVDYNALIDIYQLIKRKSNFSPREMQLFAEELRRIRKEGHHHHHH | soluble
10 | MSLCQLLGMNCNTPTDIMFSFEGFRRRGGITDHHADGFGIGFFEGKGVRLFHDDKPSVNSPVADLVRAYQIKSENVIAHIRKASQGQTSLANTHPFMREMWGGYWLFAHNGHLIDFFPEQGEFFHPVGTTDSERAFCHILNRLRTRFAARPDDDTLFDAIAGLTHEIRKFGLFNFMLSDGIALFAHASTLLHYIVRQAPFGKEGHHHHHH | not soluble
11 | MANLDDELALFESELAELEQASSNSEEPASSQTHVGYDNATISAGPTTSESSAATSSAQVIQPSLLAAPPFIPIAATIAVSPFINPALGRLPTMPPVPPSIFMPPQLRAAPIMFPPRVLGIPAPATIEGAPALYETPAVNAIPQELLRTQALQSDIDKMNFKKQTDPFKKKIKEQQAKKKFVRSGGGQVWEDPSLAEWDENDFRVFCGDLGNEVSDELLAKAFRKYPSFQKAKVVRESRTNKSKGYGFVSFRDSEDYVRAMREMDGKYVGNRPIKLRKSAWKERNIDVIKQKRKQKKELGIL | soluble
12 | MKWNLDPSHTSIDFKVRHMGIASVRGSLKVLSGSVETDEAGRPIQVEAVIDAASIATGEPQRDGHLRSADFLHAEQYPEIRFVSTQIEPLGGNRYRIQGNLTIRDITKPVTLEAEVSAPIKDPWGMQRVAASASGQINRKDWNLTWNQVLELGALLVGEEVKFNLEVEAVAPAPVAAQ | soluble
13 | MGSDKIHHHHHHMKAKHTDLEKLEQLYKESGNQLVVLYGRRGCQKEELIKEFCDGKKFFYYRCRQASPEHQLEMMGEEISRQYKVSLSRQTYEEYFARIKSGDPSKLVVIIDEAQFVAKRDTSFMEAVAKLKKHKLYPGPVLIILATSSTVWATQEASEQFKGAEMKLESLNFLEVVRHFESLPVAEIVRIYGAIGGVPAYLDKWDAAKSFKENICRLVLTPSGALYGEADAVISSELRELSAYSTILAAIARGENKLNDIFHATGFSRAKISVYLKNLATFNIVEKVVSFETGGWENAKKGVYQIKDTFVNFWFKFVYPNMSNLYLLSPEEFYDTYIEKELDAYLERYFREVCTEYLLILNQMGQLPFTIKRVGTWIGKTGRIDIVAQSEDRRSIIGFCNWDKPMMTMDMCENMAMAMDQARLTSDDYYLFSATDFEPALQSYVVRDPRFKLINMNEL | not soluble
14 | MGSDKIHHHHHHMDISIARTFLEVVKTGSFVNAAANLNISQTAVSARIRVLEEQLDRPMFVRNKAGARLTPAGEQFFRFATSLVQVWEAARTTVALPPGREAMVTIGAELSLWNPLLKHWLLWMRRECASVAIRTTIDRSERLMELVQDGSLDAAVLYGAPNRPGTLTELLFEEKLVLVRTTALSQPPGPEDLVGIDWGEDFAGSYRAAFPGGRNPVVAISYGPLALDYILEVGGSGYFRQGFVRPYLVDGRLELVPNSPEFAYPAYLVSSAKADRSMLDRIRAGLRAAASSAGV | not soluble
15 | MTTAVTQAIIDGFFDASNGDPFATLGMHETEQGIEIRTLLPDANRMVVIERESGKEITELDCVDERGFFVGVIPNCRQFFAYQLQVFWGNEAQIIEDPYRFHPMID | not soluble
16 | QMCSSLMIIAFDFDGTLVDSYSCIEEAFYRALKRTYPWLPGKRYIAKLLTKLELQFERPKFGKHGRKIKPPMKIFQGKFARAWFEERAKLTKPLDGAREVLERLKEDGHIVISFSAEDFIPGIKEYRLKISGLYDLFDDVIIFGRDITICEAFSIVREKYGYDTFVWVDDKPWRFIGRGDENTEYVWMYFPYTARFVSDDILAQIPHLHVIYDLWSLLDVVKNLK | not soluble
17 | MGHHHHHHSHMSGGEVVCSGWLRKSPPEKKLKRYAWKRRWFVLRSGRLTGDPDVLEYYKNDHAKKPIRIIDLNLCQQVDAGLTFNKKEFENSYIFDINTIDRIFYLVADSEEEMNKWVRCICDICGFNPTEEDPVK | not soluble
18 | SHMALRIIPCLDIDGGAKVVVKGVNFQGIREVGDPVEMAVRYEEEGADEIAILDITAAPEGRATFIDSVKRVAEAVSIPVLVGGGVRSLEDATTLFRAGADKVSVNTAAVRNPQLVALLAREFGSQSTVVAIDAKWNGEYYEVYVKGGREATGLDAVKWAKEVEELGAGEILLTSIDRDGTGLGYDVELIRRVADSVRIPVIASGGAGRVEHFYEAAAAGADAVLAASLFHFRVLSIAQVKRYLKERGVEVRI | soluble
19 | MVQQSEVRQMKHSVSTLNQEMTQLNQETVKITQQNRLNAKSSSGVYLLPGAKTPARLESQIGTLRMSLVNITPDADGTTLTLRIQGESNDPLPAFSGTVEYGQIQGTIDNFQEINVQNQLINAPASVLAPSDVDIPLQLKGISVDQLGFVRIHDIQPVMQLEHHHHHH | soluble
20 | MGSDKIHHHHHHMNKMKIAHLTSAHPRHDIRIFVKECSSLAAAGHEVTLIVADGQGEEIRNGVRIHDVGPKRGGRLARMTGTVKRVYQAALRLRPDVVHFHDPELIPAGVRLKQAGIKVVYDVHEDVPRQILAKHWIPGAVRPLVSGGFETLEDWAARRFDAIVTSTPHIRKRFERLGANALDVCNFPILEELVRDTPWESRRNEVCYIGGISRIRGIEPIVAALPDTSTRLNLAGPWSESDLRAKVTAEPGWARVNDLGVLDRKGVAEVLARSKIGLVTLFPTPNYVDALPIKLFEYMAAGMPVIASDFPVWREIVADAGCGVLVDPQDAAAIAAAINELLGDEERMRKLGESGKRAVLSKYSWAAEADKLVALYASL | not soluble
21 | MSMSQSRAVQRSSSPNEDRGENQLVVYDLKGNDDTEEEVLPVQSQPLSSRTQCPSIGAFTVQCASCFKWRLMPSMQKYEEIREQLLENPFFCDTAREWKPDISCDVPADIYQDGTRLWAIDKPNISRPPAGWQRLLRIRGEGGTRFADVYYVAPSGKKLRSTVEVQKYLNDNSEYIGEGVKLSQFSFQIPKPLQDDYVRKRPARLLDSIDNTNTPVAKEANPLAWISPDDHISLQLGTPTESGLNNSHYQPSKKKKTSTLSIFGSNDELADR | soluble
22 | MGHHHHHHSHMAAPLGGMFSGQPPGPPQAPPGLPGQASLLQAAPGAPRPSSSTLVDELESSFEACFASLVSQDYVNGTDQEEIRTGVDQCIQKFLDIARQTECFFLQKRLQLSVQKPEQVIKEDVSELRNELQRKDALVQKHLTKLRHWQQVLEDINVQHKKPADIPQGSLAYLGAGICQHPCTSEANVSKGQRQLAYEWADA | not soluble
23 | MAHHHHHHMNDCISTDKVDLDKKQIKKFLKQINISQLTKMIQFIDNKLLSDWDFNCLTYFDESEYPFFDINLSLICTIDHNIPINIIINFLCFVEKQYNNVPYHNTIHATMVTQKFFCLAKKLGIYDDLEYKIKLVMFISGICHDIGHPGYNNLFFVNSLHPLSIIYNDISVLENYHASITFKILQLNQCNILKNFSEKDFRMMRSYIIELILSTDMKHHFEIISKFRIRRENEDFDYIKNSDDLLILTKMIIKSADISHGSVSWSEHYCWCQRVLSEFYTQGDEELKNKMPLSPLCDRTKHNEVCKSQITFLKFVVMPLFEELSHIDNNKFIKSFCLKRLNSNCIMWDTLMKEEKTIEVYDPAAVKLKDKKKKKVDKKKKSYIDLTLFFIKNV | not soluble
